Results on one molecule are retold here after article PMC6426841, “Reversible histone glycation is associated with disease-related changes in chromatin architecture” (Nature Communications, 2019).

Ends that are not written are not given here.

The assay addresses T1, recombinant His6-tagged wild-type DJ-1 (UniProt Q99497 1-189).
T1 construct: DJ-1 (PARK7), wild type, expressed from the plasmid pET3a-His-DJ1; No removal of the His6 tag is described; The plasmid pET3a-His-DJ1 (Addgene 51488) tells the exact construct; also called PARK7; recombinant DJ-1; source: E. coli Rosetta (DE3), purified (Ni2+-NTA agarose, desalting)
T1 sequence (looked up): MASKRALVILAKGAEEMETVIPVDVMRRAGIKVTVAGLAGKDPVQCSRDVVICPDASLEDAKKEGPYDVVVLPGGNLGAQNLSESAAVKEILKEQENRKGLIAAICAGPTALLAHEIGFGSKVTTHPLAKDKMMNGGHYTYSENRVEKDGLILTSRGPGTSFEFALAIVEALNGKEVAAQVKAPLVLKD
Put plainly: pull-down; biotinylated H3 (1-18) peptide, glycated or not, incubated with recombinant DJ-1 at 4 °C for 2 h; peptide pulled down on BSA-blocked streptavidin magnetic beads, washed 3 times with 1x PBS pH 7.4, boiled; western blot with anti-DJ-1. The settings on record: both partners purified.

B1: glycated (MGO-treated) biotinylated H3 N-terminal tail peptide (residues 1-18) (peptide, UniProt Q71DI3 2-19, looked up)
peptide: ARTKQTARKSTGGKAPRK
modifications: not fully specified (N-terminus, C-terminus); also: MGO glycation adducts, sites not given here
notes: histone H3 N-terminal tail, residues 1-18; The methods speak of 'N-terminal biotinylated H3 peptides', the results of a C-terminal biotin; also called glycated H3 tail; glycated biotin-H3 tail; source: synthetic peptide (Fmoc-SPPS, RP-HPLC purified), treated with MGO at 1:3 peptide:MGO, 37 °C, 30 min; not shown: biotin, C-terminal, kept
In the case of B1, the binding result is “binds”.
